These results are taken from PMC9117268, “HDLBP binds ER-targeted mRNAs by multivalent interactions to promote protein synthesis of transmembrane and secreted proteins”.

Data set [1] has as its target T1, HDLBP full-length (FL), Vigilin (Homo sapiens, UniProt Q00341 1-1268). The experiment in a line: fluorescence anisotropy; 20 mM Tris pH 7.5, 60 mM KCl, 1 mM EDTA, 10% glycerol, 1 ng/ul tRNA, 1 ng/ul heparin, 0.4 U/ul RNasin, 200 ng/ul BSA; 10 nM RNA probe; 20 min on ice. The conditions noted are these: protein: recombinant; purification section says GST removed by TEV; label: 5' fluorescein.

In data set [2] the target is T1, HDLBP full-length (FL), Vigilin. Described as above. To be noted: protein: recombinant; purification section says GST removed by TEV; label: 5' fluorescein. The source holds these as a separate data set.

T1 sequence (Q00341 whole entry): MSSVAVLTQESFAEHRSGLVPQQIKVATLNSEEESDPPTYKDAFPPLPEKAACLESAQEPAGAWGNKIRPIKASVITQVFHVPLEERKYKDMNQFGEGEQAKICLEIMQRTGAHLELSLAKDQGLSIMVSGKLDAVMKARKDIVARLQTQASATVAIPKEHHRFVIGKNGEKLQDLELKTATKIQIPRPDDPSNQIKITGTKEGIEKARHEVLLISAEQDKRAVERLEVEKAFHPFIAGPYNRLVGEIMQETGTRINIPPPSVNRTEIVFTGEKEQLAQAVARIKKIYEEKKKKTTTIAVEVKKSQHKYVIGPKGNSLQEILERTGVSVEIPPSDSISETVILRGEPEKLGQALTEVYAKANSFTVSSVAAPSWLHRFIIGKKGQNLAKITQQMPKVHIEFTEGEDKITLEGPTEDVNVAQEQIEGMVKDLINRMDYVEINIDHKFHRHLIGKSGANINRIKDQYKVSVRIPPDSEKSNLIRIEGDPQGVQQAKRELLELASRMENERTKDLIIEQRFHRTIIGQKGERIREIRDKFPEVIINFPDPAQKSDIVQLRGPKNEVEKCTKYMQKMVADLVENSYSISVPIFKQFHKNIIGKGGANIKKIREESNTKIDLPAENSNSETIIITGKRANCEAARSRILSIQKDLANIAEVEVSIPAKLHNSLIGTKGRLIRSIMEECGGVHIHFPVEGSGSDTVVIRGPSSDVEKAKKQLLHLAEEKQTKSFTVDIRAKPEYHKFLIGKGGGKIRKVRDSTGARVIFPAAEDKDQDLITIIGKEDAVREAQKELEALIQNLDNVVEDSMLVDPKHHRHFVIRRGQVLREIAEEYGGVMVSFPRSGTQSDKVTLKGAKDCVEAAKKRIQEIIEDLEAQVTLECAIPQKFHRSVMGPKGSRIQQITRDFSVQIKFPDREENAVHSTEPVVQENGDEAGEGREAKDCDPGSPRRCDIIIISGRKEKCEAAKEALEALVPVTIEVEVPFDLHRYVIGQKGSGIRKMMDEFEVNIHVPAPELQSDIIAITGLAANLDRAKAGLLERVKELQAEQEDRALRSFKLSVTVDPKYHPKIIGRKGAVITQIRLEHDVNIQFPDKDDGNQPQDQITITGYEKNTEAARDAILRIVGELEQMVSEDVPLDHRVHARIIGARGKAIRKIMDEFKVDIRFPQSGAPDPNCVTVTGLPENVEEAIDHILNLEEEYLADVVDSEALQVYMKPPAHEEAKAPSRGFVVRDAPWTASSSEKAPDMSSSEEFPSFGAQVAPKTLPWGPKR

Take CACAGCUCUCCUAUUGAAACUUGCCCAGAUGUU (ssRNA) [TFRC_2]: the binding result in data set [1] is listed as “binds”.

In the case of AUUCCCUUCCUUCAAUCACACUCAGUUUCCACC (ssRNA) [TFRC_1], the binding result in data set [1] was “binds”.

Turning to CAACAACAACAACAACAACAACAACAACAACAA (ssRNA) [CAA_oligomer], the binding signal in data set [2] was ~10 fold lower affinity than CCU/CUU oligomers.
